Results on one molecule are retold here after US6469141B1, “D1-like dopamine receptor activity modifying protein” (Medical College of Georgia Research Institute Inc., priority 1998, dated 2002).

Assay [1] concerns the target T1, GSTD1 (C-terminal 81 residues of hD1 receptor) (Homo sapiens, UniProt P21728).
T1 construct: C-terminal 81 amino acids of the hD1 receptor (residues 365-446); made in house; host or cells: S-Calcyon: BL21(DE3) E. coli
T1 sequence (P21728 365-446): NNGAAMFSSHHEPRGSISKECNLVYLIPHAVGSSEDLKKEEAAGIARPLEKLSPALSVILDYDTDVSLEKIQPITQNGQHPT
The assay is described as follows: S-agarose pull-down assay with GSTD1 fusion protein. As to conditions: immunoblot with D1 receptor antibodies. Type of assay: binding. The text has this: For pull-down assays, a 550 bp Nco I-Bgl II fragment from pACT-Calcyon was subcloned into pET30a (Novagen, Madison, Wis.) to produce the S-Calcyon fusion protein containing residues 93-217 of the predicted Calcyon protein as well as an N-terminal tag composed of the 15 residue S peptide of ribonuclease S (Richards, F. M., et al., The Enzymes. ed.: Boyer, P. D., Academic Press, N.Y., pp. 647-806 (1971)). The S-β-galactosidase fusion protein was composed of bacterial β-galactosidase protein tagged at its N-terminus with the S peptide. Fusion proteins were induced in BL2I(DE3) E. coli with IPTG, and coupled to S-agarose resin (Novagen, Madison, Wis.) by incubating soluble fractions of bacterial lysates with resin for 1 h at RT Following incubation, unbound proteins were eliminated by washing the resin three times in 50 volumes of 25 mM HEPES (pH 7.4), 50 mM NaCl. Interaction assays were performed with GSTD1 purified as described (Bergson, C., et al., J. Neurosci. 15:7821-36 (1995)) or solubilized lysates of D1 HEK293 cells in 25 mM HEPES (pH 7.4), 50 mM NaCl, 10% glycerol, 1% bovine serum albumin containing 0.5% NP-40. Peptidel 421-435 ([…]) (SEQ ID No. 3) and Peptide2 ([…]) (SEQ ID No. 4) were synthesized using an Applied Biosystems 430A Peptide Synthesizer using the FastMoc procedures and reagents supplied by Perkin-Elmer, Applied Biosystems division. […]

Assay [2] is described as follows: binding of 3H-labeled phospholipid vesicles to resin-bound S-Calcyon. The conditions noted are these: 25 μl S-agarose resin, one hour, room temperature. As to the method:
FIG. 4 is a graph showing that calcyon's cytoplasmic domain binds PIP2. S-Calcyon bound to 25 μl of S-agarose resin, or 25 μl of S-agarose resin only was incubated for one hour at room temperature with phospholipid vesicles containing phosphotidylcholine (PC), phosphotidylethanolamine (PE), or PC, PE, and PIP2. Both types of vesicles were radioactively labeled with equivalent amounts of ^3H-phosphatidylcholine. Following incubation, resins were washed three times with ten volumes of buffer (20 mM hepes, pH 7.4), and amounts of bound phospholipid determined by liquid scintillation counting. Results are reported as percent of input radiolabel precipitated. Bars represent average value obtained in three independent assays with standard error of the mean.
Tests were conducted to determine whether Calcyon can bind PIP2 using the S-Calcyon fusion protein. S-Calcyon contains the predicted cytoplasmic domain of Calcyon (residues 93-217) preceded by an ‘S’ tag (for coupling to S-agarose resin). […] Following incubation, resin was washed three times with ten volumes of buffer (20 mM Hepes, pH 7.4), and amounts of bound phospholipid were determined by liquid scintillation counting. […] Results are reported as percent of input radiolabel precipitated, bars represent the standard error of the mean of each value determined in triplicate. […]

Assay [3] has as its target T2, full-length D1 DA receptors (Homo sapiens, UniProt P21728).
T2 construct: expressed in transfected cells; host or cells: D1 HEK293 cell lysate (receptor); BL21(DE3) E. coli (S-Calcyon)
The assay is described as follows: S-agarose pull-down assay with D1 HEK293 cell lysates. Type of assay: binding. As to conditions: detergent solubilized D1 HEK293 lysates. The text has this:
For pull-down assays, a 550 bp Nco I-Bgl II fragment from pACT-Calcyon was subcloned into pET30a (Novagen, Madison, Wis.) to produce the S-Calcyon fusion protein containing residues 93-217 of the predicted Calcyon protein as well as an N-terminal tag composed of the 15 residue S peptide of ribonuclease S (Richards, F. M., et al., The Enzymes. ed.: Boyer, P. D., Academic Press, N.Y., pp. 647-806 (1971)). The S-β-galactosidase fusion protein was composed of bacterial β-galactosidase protein tagged at its N-terminus with the S peptide. Fusion proteins were induced in BL2I(DE3) E. coli with IPTG, and coupled to S-agarose resin (Novagen, Madison, Wis.) by incubating soluble fractions of bacterial lysates with resin for 1 h at RT Following incubation, unbound proteins were eliminated by washing the resin three times in 50 volumes of 25 mM HEPES (pH 7.4), 50 mM NaCl. […]
A human embryonic kidney (HEK) 293 cell line, designated D1 HEK293, that stably expresses hD1 receptors was used to test the ability of S-Calcyon to interact with full-length D1 DA receptors. […] Proteins retained by the S-tagged target polypeptides were analyzed by immunoblotting with D1 receptor antibodies as described above. […]

T2 sequence (P21728 whole entry): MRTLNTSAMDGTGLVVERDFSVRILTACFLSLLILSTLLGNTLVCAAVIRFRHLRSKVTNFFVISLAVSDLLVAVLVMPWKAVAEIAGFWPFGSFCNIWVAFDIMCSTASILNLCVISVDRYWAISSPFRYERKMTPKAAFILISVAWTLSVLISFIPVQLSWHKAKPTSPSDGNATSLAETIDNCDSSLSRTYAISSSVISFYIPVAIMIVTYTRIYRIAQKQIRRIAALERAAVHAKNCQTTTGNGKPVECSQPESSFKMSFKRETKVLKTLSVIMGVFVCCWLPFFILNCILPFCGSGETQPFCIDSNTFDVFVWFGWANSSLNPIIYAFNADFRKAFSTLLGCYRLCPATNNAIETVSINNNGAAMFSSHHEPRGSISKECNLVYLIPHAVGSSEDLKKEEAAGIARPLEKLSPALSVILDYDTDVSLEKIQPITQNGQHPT

B1: S-Calcyon: fusion protein containing residues 93-217 of Calcyon with N-terminal 15 residue S peptide tag (protein)
chain: KETAAAKFERQHMDSMALLGCVLIMYKAIWYDQFTCPDGFLLRHKICTPLTLEMYYTEMDPERHRSILAAIGAYPLSRKHGTETPAAWGDGYRAAKEERKGPTQAGAAAAATEPPGKPSAKAEKEAARKAAGSAAPPPAQ
On to B1, for which, in assay [1], the “pull-down of GSTD1 by resin-immobilized S-tagged protein” value was “A D1 antibody reactive band of similar size was present”. Further, the “precipitation of PIP2 containing vesicles vs vesicles of PC and PE only” value in assay [2] is on record as “more than five times more effectively”. For the same molecule, the “pull-down of full-length D1 receptor by resin-immobilized S-tagged protein” value in assay [3] is “Bands of similar size were also present”.
